Here are results for 21 sequences from the DeepSol protein solubility set.

This series in a line: soluble on expression in E. coli; label from the status in PepcDB or PDB records.
On to “MLCAQTFSEEDFRIRGYVDIHRLDTTIRLALIYSTTDNFVGEDMYGDFDKAYFEKGFAERIHQAQRLLRKEHPDYSLLIYDASRPISIQRRMYTLVKGTSKAVYVANGNRGGKHNYGVAVDLTIVDRDGKPLDMGTPVDHFGRAAHVGQEERLAADGLISREAVRNRRLLRRIMKSVGLVPYRREWWHYELPESMSHTRSHYRLLDF”, for which the “soluble on expression in E. coli” value is “not soluble”.
The value for “MLLAMELLLEYDYYWKLDNIIANVQRNFPSNSLTVLFPKTHLLISPENMGRVAAKLIRLTEKNQQRNGIVTFKLYYQHEEGEEEEEEEVDEDEDEEGEEGEEEEEEEDEVEEVPQKISEIFNLGAHLVGEPPENCWYLEDILTIPKEIIKDAFGDVTVWYGKSFQLRNSIANRRIHFNLFYTKNYLKKFFMERDGCMMETEFLRHFKDIAN” was “not soluble”.
The value for “MSLSFLKHVQDCNTHDLSNFVRFVIEGRRVGWVRKALAQRLKAHGRVFDVTRDAVLLSASLRTPQSRTRAVADVVDRLADEGVVPAPRGELYRVNQSWGEPTLMLLDRAVVPTFGVRAYGVHLNGYVGAGADLHLWIGRRSPDKSVAPGKLDNMVAGGQPADLSLRQNLIKECAEEADLPEALARQAIPVGAITYCMESPAGIKPDTLFLYDLALPEDFRPHNTDGEMADFMLWPAAKVVEAVRTTEAFKFNVNLTVIDFAIRHGLIDPDNEPDYQEILAGLRGRPRERAASEGHHHHHH” was “soluble”.
The result for “MKLYFIINPAAKNGRSVSIWKQLQPLLDREGIAYQAYWTSRKGEGKEIARRIGEESVEPTVIAAVGGDGTVHEVVNGAGSFPHVAIGCIPAGTGNDFVRGFRLARKPKQALQRLLSDVRSGKDLAFDLGRFASSAVPDGVFANSIGCGFDAHIARMANRSKWKGRLNRFGLGSFIYVFYLVRELFRYQPVDLDICVDGQNYSFLKAWLATASNHPYYGGGMRIAPSVRADDGLLHVTVVGPMPRWKILALFLTVFWGGHVRMKEVCVFTGRNVRIRPAAPVLIHADGEDAGEGEVFAWIEPGRLRVIGVKTR” reads “not soluble”; that for “MSRFNPSPVSLSVTLGLMFSASAFAQDATKTDETMVVTAAGYAQVIQNAPASISVISREDLESRYYRDVTDALKSVPGVTVTGGGDTTDISIRGMGSNYTLILVDGKRQTSRQTRPNSDGPGIEQGWLPPLQAIERIEVIRGPMSTLYGSDAIGGVINIITRKDQQQWSGNVQLSTVVQENRASGDEQSANFFVTGPLSDALSLQVYGQTTQRDEDEIEHGYGDKSLRSLTSKLNYQLNPDHQLQLEAGVSAQDRENNVGKSAQSSGCRGTCSNTDNQYRRNHVAVSHQGDWQDVGQSDTYLQYEENTNKSREMSIDNTVFKSTLVAPIGEHMLSFGVEGKHESLEDKTSNKISSRTHISNTQWAGFIEDEWALAEQFRLTFGGRLDHDKNYGSHFSPRVYGVWNLDPLWTVKGGVSTGFRAPQLREVTPDWGQVSGGGNIYGNPDLKPETSINKELSLMYSTGSGLAASLTAFHNDFKDKITRVACPANICTAGPNQWGAAPTYRVNIDEAETYGAEATLSLPITESVELSSSYTYTHSEQKSGNFAGRPLLQLPKHLFNANLSWQTTDRLNSWANLNYRGKEMQPEGGASNDDFIAPSYTFIDTGVTYALTDTATIKAAVYNLFDQEVNYAEYGYVEDGRRYWLGLDIAF”, “not soluble”; that for “TVQVPVYSEQEYQLYLHDDAWTKAETDHLFDLSRRFDLRFVVIHDRYDHQQFKKRSVEDLKERYYHICAKLANVRAVPGTDLKIPVFDAGHERRRKEQLERLYNRTPEQVAEEEYLLQELRKIEARKKEREKRSQDLQKLITAADTTAEQRRTERKAPKKKLPQKKEAEKPAVPETAGIKFPDFKSAGVTLRSQRMKLPSSVGQKKIKALEQMLLELGVELSPTPTEELVHMFNELRSDLVLLYELKQACANCEYELQMLRHRHEALARAGVLGGPATPASGPGPASAEPAVTEPGLGPDPKDTIIDVVGAPLTPNSRKRRESASSSSSVKKAKKP”, “soluble”.
On to “MSLEKAARHKQEVDTVQDKKVVNITGQGSTSRFFLPTALIRLRDASAQSIRTVLNQFFDRADDALFELADRAGTDQEQTRYFDAMRELRLRRKSMTVAVLHHVGQAFNDIGKFRPQSTVSSLDSVDEGFLSLLDHAELEQQVAIDNMVTKLRYQYSEALRHLSLRVRHLLPGVTLEDDQMPLCPEVLCGGLAAASKDLDVDIKARLIVLKLFDQLLVTSLGEVYHGANVTLIKEGVLPDSKAVRPVQTARSRQGAPVPPPSVVYREADWYGVGQPQAEVSAATFSQLSALLRQGQPAYGDGQAPASGGQWLQTDALLARLSQVQTAFGNDPGAPLVSLSQQLQPVLQNSSGQSLRPGQVDNDVINLVAMLFEFILDDRHLHSVMKSLLGRLQIPILKVALTDKNFFNRGGHPARKLLNEMALAATGWTEKRPGQRDPLLDKISAVVNRILAEFSTDVSLFNELLDDFNQFSDLDQRRSDLVEQRLRDAEEGRARHEQATADTKELLHEAMDGRLLPEPVQDMLNGPWSHYLHWLALHESTDSEAWQRAKTLTEQLIWTIDPVPLTATTHELLQQAIPQVIEQLRGALEGVAWDGLSVEMVVRDLELVHLDVFQRLVIAPSEAAGNDHAQIDDSQEAPAVRADAVPSDTTNTSADVSHPAPALPVAADDPKEAVVARVPEPTRAQPVVAEEWLAKADGLRVGCWLELNRDGSQIRCKLAAFIRAVDKYIFVNRSGAKVAEYRRNELAEMMAQGHIEILDDGLIFDRALESIIDNLRTSRREGHHHHHH”, for which the “soluble on expression in E. coli” value is listed as “not soluble”.
For “ATCDDGRTTANAACCILFPILDDIQENLFDGAQCGEEVHESLRLTFHDAIGFSPTLGGGGADGSIIAFDTIETNFPANAGIDEIVSAQKPFVAKHNISAGDFIQFAGAVGVSNCPGGVRIPFFLGRPDAVAASPDHLVPEPQDSVDSILARMGDAGFSPVEVVWLLASHSIAAADKVDPSIPGTPFDSTPGVFDSQFFIETQLKGRLFPGTADNKGEAQSPLQGEIRLQSDHLLARDPQTACEWQSMVNNQPKIQNRFAATMSKMALLGQDKTKLIDCSDVIPTPPALVGAAHLPAGFSLSDVEQACAATPFPALTADPGPVTSVPPVPGS”, the “soluble on expression in E. coli” value was “soluble”.
For “LESYLLDSERSKVIREMNETYTEFNYKETKKNLEGLASSLEHKYLVEASSLDEGLDEILTLHRLKVPGLLRISFLTTNLIELARETARDIMGRVRGWSKGNQVLRWLSCVFLHARNSLSK”, the “soluble on expression in E. coli” value was “not soluble”.
Regarding “MNGIFIEDKRLGIRLPHLDKPWEDYSPNEQEAILLEWETIRGLIPDRIAELEREINKKQDELGQEADFARSCQLNADIAELASIVNDLWIWYRIVPSVSSRHGKKRVEKP”, the “soluble on expression in E. coli” value was “not soluble”.
For the sequence “MTLTKAELADILVDKVSNVTKNDAKEIVELFFEEIRSTLASGEEIKISGFGNFQLRDKPQRPGRNPKTGEEVPITARRVVTFHASQKLKSMVEHYYDKQR”, the “soluble on expression in E. coli” value was “not soluble”.
The result for “MSLEDTTITFWHAMNGVQEEALTKLTKDFMKENPKIKVELQNQSAYPDLQAKINSTLTSPKDLPTITQAYPGWLWNAAQDEMLVDLKPYMDDDTIGWKDAEPIREVLLDGAKIDGKQYGIPFNKSTEMLFYNADLLKEYGVEVPKTLEELKEASKTIYEKSNKEVVGAGFDSLNNYYAIGMKNKGVDFNKDLDLTSKDSQEVVDYYRDGIEAGYFRTAGSDKYLSGPFANKKVAMFVGSIAGAGFVQKDAEAGGYEYGVAPRPEKINLQQGTDIYMFDSATPEQRTAAFEFMKFLATPDSQLYWAQQTGYMPILESVLHSDEYKNSKTTKVPAQLENAVKDLFAIPVEENADSAYNEMRTIMESIFASSNKDTRKLLKDATSQFEQAWNQEGHHHHHH” reads “soluble”; that for “MGHHHHHHSHDDVIDKTLNYTRRKSNDIVYIGSLSKDKGVDILLELVKTFTKNGNDTIIHIVGKGLLYEKIFERIGEINKRVIYYGPQPLKRALQIASRASLGVVLTRPSYESLTTDPMKPKVYLAAHTPVILPEYFEISSYVNRFKAGMVVGKLKPSYILSKVKVALEDSNTLLKGAERLAKS”, “not soluble”; that for “MDLWLLANDESCLRHQAFWHSWQGPLVERQQSNNITLTDVLEGVHAYLQGHLDDFEIQEAFVTKELPLKLAQLRERWERYVVLNAELAARGRGGFERNRRDD”, “soluble”.
The result for “MSLLCLFAVFAFSCNEEMERLLTDDYPESGTEYTTGHVLMVVIDGASGIAVNEAYNTRKAPVIRSMTDKSLFTFYGLADNEEGVSKERGWANLLTGTTKNGLDVNQGIDELETPSFLQRLKEADENLKVSFYSSDTEFFGAFGSVANTKRKTSADSETADALIAEINGETISDIVVAQFGGVQQTGEQYGFWSNETTPTSEVIDAIYNVDAFIGKIMKALEARSRYVQENWLVVITSSYGGVYEGNVTPASEGHHHHHH” reads “soluble”; that for “GMSNLETAKAMIAAYNAQDVDTYVSYMTDDACEANYRGDVVREGKEGTRSGLAAAFARWPQNHAEIKDAQQVGTYVLMREHVTRGPATDGSPLVEPFDVVAVYSFEGDKCSRVEFIR”, “soluble”.
The result for “PVKVVVGKTFDAIVMDPKKDVLIEFYAPWCGHCKQLEPIYTSLGKKYKGQKDLVIAKMDATANDITNDQYKVEGFPTIYFAPSGDKKNPIKFEGGNRDLEHLSKFIDEHATKRSRTKEEL” reads “soluble”; that for “MAQNLPTIALLATGGTIAGSGVDASLGSYKSGELGVKELLKAIPSLNKIARIQGEQVSNIGSQDMNEEIWFKLAQRAQELLDDSRIQGVVITHGTDTLEESAYFLNLVLHSTKPVVLVGAMRNASSLSADGALNLYEAVSVAVNEKSANKGVLVVMDDTIFSVREVVKTHTTHVSTFKALNSGAIGSVYYGKTRYYMQPLRKHTTESEFSLSQLKTPLPKVDIIYTHAGMTPDLFQASLNSHAKGVVIAGVGNGNVSAGFLKAMQEASQMGVVIVRSSRVGSGGVTSGEIDDKAYGFITSDNLNPQKARVLLQLALTKTNDKAKIQEMFEEY”, “soluble”; that for “GHHHHHHAIAENLYFQSEDPVFTFGLIADVQYADIEDGENYLRTRRRYYRGSADLLRDAVLQWRRERVQCVVQLGDIIDGHNRRRDASDRALDTVMAELDACSVDVHHVWGNHEFYNFSRPSLLSSRLNSAQRTGTDTGSDLIGDDIYAYEFSPAPNFRFVLLDAYDLSVIGREEESEKHTHSWRILTQHNHNLQDLNLPPVSVGLEQRFVKFNGGFSEQQLQWLDAVLTLSDHKQERVLIFSHLPVHPCAADPICLAWNHEAVLSVLRSHQSVLCFIAGHDHDGGRCTDSSGAQHITLEGVIETPPHSHAFATAYLYEDRMVMKGRGRVEDLTITYS”, “soluble”.
In the case of “MAHHHHHHMMNKNDITIDENNKYIFRASSFYNKDGLLIKSYSWEVREPLGIIILVHGLASHIRFGFLKQNAKIVNNDHAVLIDGDNYYIYEGSWIEKLNKNGYSVYGLDLQGHGESDGYQNLKLHIKDYDDYIYDLIDFIKSVYESIISKKEKKQMYIRDNDIIETVPIYLVGYSMGANIILRALQLLNKSNDNLISKLNIKAFISLAGMISIKNIGSIDSLKYKYLFLPIIKMLSYVCPTYRLRKKHSGFKRFPYINDLMNFDKLRYKKGMTNKLAYEVIKSVYILKKYINDIPQNVPILFIHSRHDSVCAYEEVLSFYNNLYNTNKEIYTLENMDHVVTLEPENEQALNKMLTWIKKCE”, the “soluble on expression in E. coli” value is given as “soluble”.
On to “MQGFELEDLTLWLIRDAGEDQMWIDRWAISYPVVQMSEASAGQSIGEWQAGLQTAFERIRGKYVAVVAHGAGAAAFLAWLYQADILTRKKIANIILVPQRPDIFPDDAEHAFQRVRCPCRAALVVPEHGGVPHGWAQKQADLWNARLLVSPHSGSLNGMLGGWQWGMKLMQEMLLA”, for which the “soluble on expression in E. coli” value is “not soluble”.
